Measured values reported in CN115073602A (SUZHOU ABCARTA MEDICAL TECH CO LTD, dated 2022).

Experiments:
CD3抗原 (SEQ ID NO:1 合成多肽) = biological target: T1, CD3抗原 (SEQ ID NO:1 合成多肽); assay: ELISA screening of hybridoma clones on CD3 antigen (SEQ ID NO:1)
T1 construct: KLH/OVA conjugation is stated for immunisation only; also called CD3的多肽
T1 peptide: KGQRDLYSGLNQRRI

CD3蛋白 (表达CD3蛋白的细胞) = biological target: T2, CD3蛋白 (表达CD3蛋白的细胞); assay: flow cytometry on CD3-expressing cells, against blank control without antibody
T2 construct: whole, on cells; also called 表达CD3蛋白细胞
T2 sequence (P07766 23-207): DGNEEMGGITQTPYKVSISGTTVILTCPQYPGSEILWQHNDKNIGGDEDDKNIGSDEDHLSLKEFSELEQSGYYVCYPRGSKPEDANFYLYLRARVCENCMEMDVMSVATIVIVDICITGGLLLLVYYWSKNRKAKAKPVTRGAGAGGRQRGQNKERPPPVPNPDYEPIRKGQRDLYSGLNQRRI

B1: 230B2F6抗CD3重组兔单克隆抗体 (antibody, V domains shown)
VH: QSLEESGGRLVTPGTPLTLTCTASGFSLNDYWMSWVRQAPGKGLEWIGIIIRGGTTWYANWVKGRFTISKTSTTVDLKMTSPTTEDTATYFCARIGGGNTGFNLWGPGTLVTVSS
VL: AQVLTQTPSSVSEPVGGTVTINCQASENIYISLAWYQQKPGQPPNLLIYDASDLASGVPSRFSGSGSGTEFTLTISGVQCEDAATYYCQSYNYSSVTFGGGTEVVVK
notes: also called 230B2F6抗体; 230B2F6抗CD3单克隆抗体
For B1, the binding result (CD3抗原 (SEQ ID NO:1 合成多肽)) was “binds” and the “fold increase of MFI over blank control” value (CD3蛋白 (表达CD3蛋白的细胞)) was 1070 fold.
